Test results taken from US9605064B2, “Methods and compositions for treatment of skin disorders” (AbbVie Biotechnology Ltd, priority 2006, dated 2017).

Tested on: patients with moderate to severe chronic plaque psoriasis
Assay: Adverse events, Phase II trial with 48-week extension
[1] = Week 0-12, 40 mg weekly (N = 50)
[2] = Week 0-60, 40 mg weekly (N = 50)
[3] = Week 0-60, Placebo/Adalimumab 40 mg eow (N = 52)
[4] = Week 12-60, 40 mg weekly (n = 50)
[5] = Week 12-60, Placebo/Adalimumab 40 mg eow + Adalimumab 40 mg eow (n = 92)
[6] = Weeks 0-12, 40 mg weekly (n = 50)
[7] = Weeks 0-12, 40 mg weekly, prior biologic use (n = 9)
[8] = Weeks 12-60, 40 mg weekly (n = 50)
[9] = Weeks 12-60, 40 mg weekly, no prior use (n = 24)
[10] = Weeks 12-60, 40 mg weekly, prior biologic use (n = 7)
[11] = Weeks 12-60, 40 mg weekly, prior systemic use (n = 21)
[12] = Weeks 12-60, Placebo/Adalimumab 40 mg eow + Adalimumab 40 mg eow (n = 92)
[13] = Weeks 12-60, placebo/adalimumab 40 mg eow + adalimumab 40 mg eow, no prior use (n = 47)

Description: The study was a randomized, double-blind, placebo-controlled, multi-center clinical trial, wherein patients were randomized to one of three treatment groups. The three treatment groups consisted of the following: • 1. […] Inclusion criteria included a diagnosis of moderate to severe chronic plaque psoriasis≧1 year prior to entry, a psoriasis-affected body surface area (BSA)>5%, and no previous use of TNF-antagonist therapy.
Inclusion criteria for the study included the following parameters: ≧18 years of age; moderate to severe chronic plaque psoriasis≧1 year; and affected BSA≧5%. […] Efficacy outcome measures included PASI and PGA.
Inclusion criteria included patients being 18 years of age; having moderate to severe chronic plaque psoriasis≧1 year; and affected BSA≧5%. Exclusion criteria included prior TNF-antagonist therapy and discontinuation of other systemic psoriasis therapies. Efficacy outcome measures which were used included PASI, PGA, DLQI.
Inclusion criteria included: • ≧18 years of age • Moderate to severe chronic plaque psoriasis 1 year • Affected BSA≧5% Exclusion criteria included: • Prior TNF-antagonist therapy • Discontinuation of other systemic psoriasis therapies Efficacy outcome was measured using PASI and DLQI responses/scores.

In the case of “Adalimumab: a human anti-TNF mAb, described in U.S. Pat. No. 6,090,382 as D2E7 (HUMIRA, Abbott Laboratories)”, the “Withdrawals: Abnormal lab value, number of patients” value (shortened to “Withdrawals: Abnormal lab value”) (Week 0-12, 40 mg eow (N = 45)) is reported as 0, the “Withdrawals: Adverse events, number of patients” value (shortened to “Withdrawals: Adverse events”) (Week 0-12, 40 mg eow (N = 45)) is reported as 2 and the “Withdrawals: Lack of Efficacy, number of patients” value (shortened to “Withdrawals: Lack of Efficacy”) (Week 0-12, 40 mg eow (N = 45)) is reported as 0. For the same substance, the “Withdrawals: Abnormal lab value” value [1] was 1, the “Withdrawals: Adverse events” value [1] was 2 and the “Withdrawals: Lack of Efficacy” value [1] was 0. For the same substance, the “Withdrawals: Abnormal lab value” value (Week 0-60, 40 mg eow (N = 45)) was 0, the “Withdrawals: Adverse events” value (Week 0-60, 40 mg eow (N = 45)) was 4 and the “Withdrawals: Lack of Efficacy” value (Week 0-60, 40 mg eow (N = 45)) was 6. For the same substance, the “Withdrawals: Abnormal lab value” value [2] was 1, the “Withdrawals: Adverse events” value [2] was 8 and the “Withdrawals: Lack of Efficacy” value [2] was 4. The “Withdrawals: Abnormal lab value” value [3] was 0, the “Withdrawals: Adverse events” value [3] was 2 and the “Withdrawals: Lack of Efficacy” value [3] was 6. The “Back pain, number of patients” value [4] was 4 n, the “Back pain, percent of patients” value [4] was “(8.0) %” and the “Blood creatine phosphokinase increased, number of patients” value [4] was 2 n. The “Blood creatine phosphokinase increased, percent of patients” value [4] was “(4.0) %”, the “Blood triglycerides increased, number of patients” value [4] was 2 n and the “Blood triglycerides increased, percent of patients” value [4] was “(4.0) %”. For the same substance, the “Headache, number of patients” value [4] was 6 n, the “Headache, percent of patients” value [4] was “(12.0) %” and the “Muscle strain, number of patients” value [4] was 4 n. The “Muscle strain, percent of patients” value [4] was “(8.0) %”, the “Nasopharyngitis, number of patients” value [4] was 6 n and the “Nasopharyngitis, percent of patients” value [4] was “(12.0) %”. The “Skin papilloma, number of patients” value [4] was 5 n, the “Skin papilloma, percent of patients” value [4] was “(10.0) %” and the “Upper Respiratory Infection, Not otherwise specified, number of patients” value [4] was 7 n. The “Upper Respiratory Infection, Not otherwise specified, percent of patients” value [4] was “(14.0) %”, the “Upper Respiratory Infection, Viral not otherwise specified, number of patients” value [4] was 3 n and the “Upper Respiratory Infection, Viral not otherwise specified, percent of patients” value [4] was “(6.0) %”. For the same substance, the “Urticaria, number of patients” value [4] was 3 n, the “Urticaria, percent of patients” value [4] was “(6.0) %” and the Back pain [5] was 4 (4.3) n (%). The “Blood creatine phosphokinase increased” value [5] was 5 (5.4) n (%), the Blood triglycerides increased [5] was 7 (7.6) n (%) and the Headache [5] was 3 (3.3) n (%). The Muscle strain [5] was 1 (1.1) n (%), the Nasopharyngitis [5] was 13 (14.1) n (%) and the Skin papilloma [5] was 3 (3.3) n (%). The “Upper Respiratory Infection, Viral not otherwise specified” value [5] was 4 (4.3) n (%), the Urticaria [5] was 0 (0.0) n (%) and the “Adverse Events Leading to Withdrawal” value (Weeks 0-12, 40 mg eow (n = 45)) was 2 (4.4) n (%). The “Any Adverse Event” value (Weeks 0-12, 40 mg eow (n = 45)) was 28 (62.2) n (%), the “Serious Adverse Events” value (Weeks 0-12, 40 mg eow (n = 45)) was 1 (2.2 n (%) and the “Adverse Events Leading to Withdrawal” value [6] was 3 (6.0) n (%). The “Any Adverse Event” value [6] was 39 (78.0) n (%), the “Serious Adverse Events” value [6] was 4 (8.0) n (%) and the “AE's→Withdrawal” value [7] was 2 (22) n (%). The “Any AE” value [7] was 6 (67) n (%), the “Serious AE” value [7] was 2 (22) n (%) and the “Adverse Events Leading to Withdrawal” value [8] was 5 (10.0) n (%). For the same substance, the “Any Adverse Event” value [8] was 39 (78.0) n (%), the “Serious Adverse Events” value [8] was 7 (14.0) n (%) and the “AE's→Withdrawal” value [9] was “(8) %”. The “AE's→Withdrawal, number of patients” value [9] was 2, the “Any AE” value [9] was “(79) %” and the “Any AE, number of patients” value [9] was 19. For the same substance, the “Serious AE” value [9] was “(17) %”, the “Serious AE, number of patients” value [9] was 4 and the “AE's→Withdrawal” value [10] was “(0) %”. For the same substance, the “AE's→Withdrawal, number of patients” value [10] was 0, the “Any AE” value [10] was “(86) %” and the “Any AE, number of patients” value [10] was 6. The “Serious AE” value [10] was “(0) %”, the “Serious AE, number of patients” value [10] was 0 and the “AE's→Withdrawal” value [11] was “(14) %”. For the same substance, the “AE's→Withdrawal, number of patients” value [11] was 3, the “Any AE” value [11] was “(81) %” and the “Any AE, number of patients” value [11] was 17. For the same substance, the “Serious AE” value [11] was “(10) %”, the “Serious AE, number of patients” value [11] was 2 and the “Adverse Events Leading to Withdrawal” value [12] was 3 (3.3) n (%). For the same substance, the “Any Adverse Event” value [12] was 72 (78.3) n (%), the “Serious Adverse Events” value [12] was 2 (2.2) n (%) and the “AE's→Withdrawal” value [13] was “(2) %”. The “AE's→Withdrawal, number of patients” value [13] was 1 and the “Any AE” value [13] was “(79) %”.
